Laboratory results from US20040137643A1, “Immunodetection and quantification methods” (priority 2002, published 2004).
Several values for one entry are separate records, joined by “and”; a condition that tells them apart may be missing. Equal entries are not always repeated. Where two headings read alike, the source gives them in different places.

B1: Wild type C4H: Arabidopsis P450 cinnamate 4-hydroxylase (C4H) expressed in yeast from pYeDP60-C4H (protein, UniProt P92994 1-505, looked up)
Trans-cinnamate …: MDLLLLEKSLIAVFVAVILATVISKLRGKKLKLPPGPIPIPIFGNWLQVGDDLNHRNLVDYAKKFGDLFLLRMGQRNLVVVSSPDLTKEVLLTQGVEFGSRTRNVVFDIFTGKGQDMVFTVYGEHWRKMRRIMTVPFFTNKVVQQNREGWEFEAASVVEDVKKNPDSATKGIVLRKRLQLMMYNNMFRIMFDRRFESEDDPLFLRLKALNGERSRLAQSFEYNYGDFIPILRPFLRGYLKICQDVKDRRIALFKKYFVDERKQIASSKPTGSEGLKCAIDHILEAEQKGEINEDNVLYIVENINVAAIETTLWSIEWGIAELVNHPEIQSKLRNELDTVLGPGVQVTEPDLHKLPYLQAVVKETLRLRMAIPLLVPHMNLHDAKLAGYDIPAESKILVNAWWLANNPNSWKKPEEFRPERFFEEESHVEANGNDFRYVPFGVGRRSCPGIILALPILGITIGRMVQNFELLPPPGQSKVDTSEKGGQFSLHILNHSIIVMKPRNC
B2: FLAG-tagged C4H: amino-terminal FLAG-epitope tagged C4H expressed in yeast from pYeDP60-FC4H (protein, UniProt P92994 1-505, looked up)
Trans-cinnamate …: B1 Trans-cinnamate …
modifications: N-terminal FLAG tag

Assay: C4H enzyme assay: para-hydroxylation of cinnamic acid by yeast microsomes, HPLC quantification of p-coumarate
Assay type: biochemical
Settings: for Km: Arabidopsis C4H in WAT11 yeast microsomes, substrate cinnamic acid; for Turnover (min^−1 ± SD), CO difference spectrum: P450 concentration from CO difference spectroscopy; for turnover rate, calculated using P450 concentrations from CO difference spectroscopy: spectroscopic P450 quantification
Experimental: C4H assays were carried out in the presence of various concentrations of cinnamic acid as previously described (Humphreys et al., 1999). Briefly, an NADPH regenerating system consisting of 1 mM NADP^+, 10 mM glucose-6-phosphate, and 1 unit of glucose-6-phosphate dehydrogenase (Sigma, St. Louis, Mo.) was pre-incubated at 30° C. for 5 min to generate NADPH in a final volume of 450 PL of assay buffer. Assays were initiated by the addition of 50 μL of appropriately diluted microsomes and were incubated at 30° C. for 20 min before the reactions were stopped with 100 μL of 3N HCl. Samples were centrifuged for 20 min at 14,000×g and then analyzed by HPLC (Shimadzu Corp., Kyoto, Japan) using a Microsorb-MV C-18 column (Varian Analytical Instruments, Walnut Creek, Calif.) using the following method: solvent A, 1.5% acetic acid in water; solvent B, acetonitrile; flow rate of 1 mL min^−1; 0 to […] in 1.5 min, […], 35 to 100% B in 1 min, 100% B for 5 min. Reaction product was quantified by UV detection at 308 nm. Assays conducted with microsomes isolated from yeast transformed with pYeDP60 served as negative controls.
To evaluate the impact of introducing an amino-terminal FLAG epitotope on C4H enzymatic activity, kinetic parameters of both native and FLAG-C4H were determined using the same microsomal fractions used for protein quantification. It is important to note that the WAT11 yeast strain was chosen because this strain is engineered to express the Arabidopsis P450 reductase gene ATR1 under the control of the same galactose promoter used to drive P450 expression, eliminating the need to reconstitute the P450/P450 reductase system. Consistent with subcellular targeting of wild-type C4H expressed in yeast, both the native and FLAG-C4H activity was found in the microsomal fraction. […] Turnover rates of native and FLAG-C4H were also evaluated, using both spectroscopic and immunological P450 quantitation. When calculated using P450 concentrations obtained from CO difference spectroscopy, native C4H and FLAG-C4H turnover rates were determined to be 28±0.1 and 83±2.0 min^1, respectively. This difference, although significant, may be associated with variability in reductase activity in this heterologous expression system (data not shown). In comparison to CO difference spectroscopy, the lower concentration of FLAG-C4H obtained by Midwestern blot gives a correspondingly higher turnover rate of 380±7 min^−1.

[1] = P450 concentration from Midwestern blot

Row | Molecule | Km (n=3, read-out: Km app. (±SD)) [µM] | Km (read-out: Km^aPP) [µM] | Turnover (min^−1 ± SD), CO difference spectrum [min⁻¹] | turnover rate, calculated using P450 concentrations from CO difference spectroscopy [min^1] | Turnover (min^−1 ± SD), Midwestern blot [1] [min⁻¹] | turnover rate, calculated using immunological quantification [1] [min^1] | Turnover (min^−1 ± SD), Midwestern blot (P450 concentration from Midwestern blot, listed as FLAG-C4H) [min⁻¹] | turnover rate, calculated using P450 concentrations from CO difference spectroscopy (listed as FLAG-C4H)
1 | B1 | 0.7 ± 0.01 | 0.7 ± 0.01 | 28 ± 0.1 | 28±0.1 | – | – | – | –
2 | B2 | 1.1 ± 0.09 | 1.1 ± 0.09 | 83 ± 2 | – | 380 ± 7 | 380±7 | 380 ± 7 | 83±2.0 min^1 and 83±2 min^1
